Test results published in PMC5231900 (Molecular Biology of the Cell, 2017).

Assays:
Experiment in all cases: pull-down
[1] = target: wild-type HOPS complex purified via Vps41-TAP (yeast, UniProt P38959;Q07468;P20795;P12868;Q03308;P27801)
[2] = target: wild-type HOPS complex purified via Vps39-TAP (yeast, UniProt Q07468;P38959;P20795;P12868;Q03308;P27801)
[3] = target: Vps41-Vps3-class C hybrid complex (yeast, UniProt P38959;P23643;P20795;P12868;Q03308;P27801)
[4] = target: wild-type Vps39-Vps11 complex (yeast, UniProt Q07468;P12868)

Measured: binding result

Chain of wild-type Vps39-Vps11 complex (Q07468 whole entry, chain 1 of 2): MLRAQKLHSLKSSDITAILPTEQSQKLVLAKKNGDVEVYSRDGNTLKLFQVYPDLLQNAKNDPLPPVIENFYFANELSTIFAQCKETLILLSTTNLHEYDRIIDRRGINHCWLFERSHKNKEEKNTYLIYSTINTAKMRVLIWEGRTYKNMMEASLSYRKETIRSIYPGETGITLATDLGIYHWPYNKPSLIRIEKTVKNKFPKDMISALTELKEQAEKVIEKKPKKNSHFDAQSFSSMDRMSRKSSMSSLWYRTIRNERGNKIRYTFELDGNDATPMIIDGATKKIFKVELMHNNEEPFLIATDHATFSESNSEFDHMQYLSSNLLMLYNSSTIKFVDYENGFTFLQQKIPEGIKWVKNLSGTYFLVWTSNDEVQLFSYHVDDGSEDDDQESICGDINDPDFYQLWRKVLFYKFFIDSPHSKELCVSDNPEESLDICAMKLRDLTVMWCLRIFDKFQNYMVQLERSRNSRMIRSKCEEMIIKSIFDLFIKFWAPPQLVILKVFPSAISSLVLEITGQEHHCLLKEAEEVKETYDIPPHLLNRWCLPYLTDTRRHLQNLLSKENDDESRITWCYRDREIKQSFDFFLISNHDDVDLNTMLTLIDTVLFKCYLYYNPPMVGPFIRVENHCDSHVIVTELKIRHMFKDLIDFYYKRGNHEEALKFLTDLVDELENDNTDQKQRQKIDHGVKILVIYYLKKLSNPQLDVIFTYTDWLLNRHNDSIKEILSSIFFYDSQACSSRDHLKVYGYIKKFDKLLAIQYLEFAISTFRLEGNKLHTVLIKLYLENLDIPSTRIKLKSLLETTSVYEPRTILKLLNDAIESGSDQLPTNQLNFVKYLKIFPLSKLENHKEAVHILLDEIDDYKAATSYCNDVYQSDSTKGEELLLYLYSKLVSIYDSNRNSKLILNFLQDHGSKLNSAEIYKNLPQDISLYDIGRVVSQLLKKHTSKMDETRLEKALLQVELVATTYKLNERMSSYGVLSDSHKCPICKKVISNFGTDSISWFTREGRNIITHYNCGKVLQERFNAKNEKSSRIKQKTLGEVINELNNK
Chain of wild-type Vps39-Vps11 complex (P12868 whole entry, chain 2 of 2): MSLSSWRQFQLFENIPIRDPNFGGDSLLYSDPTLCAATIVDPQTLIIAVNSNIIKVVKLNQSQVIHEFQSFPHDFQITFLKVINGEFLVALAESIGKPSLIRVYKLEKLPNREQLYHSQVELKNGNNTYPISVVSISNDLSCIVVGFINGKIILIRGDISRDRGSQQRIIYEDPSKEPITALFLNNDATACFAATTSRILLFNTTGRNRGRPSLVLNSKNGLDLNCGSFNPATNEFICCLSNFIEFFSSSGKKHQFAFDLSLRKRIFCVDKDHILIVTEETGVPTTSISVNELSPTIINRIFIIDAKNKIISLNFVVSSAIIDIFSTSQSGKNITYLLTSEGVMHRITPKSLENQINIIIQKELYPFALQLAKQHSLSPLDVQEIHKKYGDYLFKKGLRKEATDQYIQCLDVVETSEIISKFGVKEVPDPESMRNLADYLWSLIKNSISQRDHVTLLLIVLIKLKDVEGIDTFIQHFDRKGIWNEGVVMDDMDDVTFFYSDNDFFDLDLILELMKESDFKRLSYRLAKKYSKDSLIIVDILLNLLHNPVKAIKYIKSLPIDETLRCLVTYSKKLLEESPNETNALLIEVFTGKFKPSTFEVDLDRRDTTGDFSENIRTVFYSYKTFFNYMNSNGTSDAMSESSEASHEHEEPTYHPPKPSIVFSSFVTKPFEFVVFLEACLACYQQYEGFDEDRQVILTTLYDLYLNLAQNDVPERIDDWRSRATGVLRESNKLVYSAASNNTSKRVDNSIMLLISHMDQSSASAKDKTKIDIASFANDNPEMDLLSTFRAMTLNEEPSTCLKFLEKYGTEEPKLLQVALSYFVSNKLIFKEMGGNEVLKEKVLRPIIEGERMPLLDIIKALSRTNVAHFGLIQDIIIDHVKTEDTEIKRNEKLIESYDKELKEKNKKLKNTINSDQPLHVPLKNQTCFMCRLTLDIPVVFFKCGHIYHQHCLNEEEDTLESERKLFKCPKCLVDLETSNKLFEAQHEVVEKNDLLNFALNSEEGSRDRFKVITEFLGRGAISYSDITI

B1: GST-Ypt7 (natural protein)
chain: MSSRKKNILKVIILGDSGVGKTSLMHRYVNDKYSQQYKATIGADFLTKEVTVDGDKVATMQVWDTAGQERFQSLGVAFYRGADCCVLVYDVTNASSFENIKSWRDEFLVHANVNSPETFPFVILGNKIDAEESKKIVSEKSAQELAKSLGDIPLFLTSAKNAINVDTAFEEIARSALQQNQADTEAFEDDYNDAINIRLDGENNSCSC
binds: all assays above
